Data reported in patent EP4138793B1, “NOVEL NON-PROTEINIC FURIN INHIBITOR” (priority 2020, dated 2021).
The star is where a group is joined. Decanoyl = CCCCCCCCCC(=O)*; CH2Cl = ClC*

Target: furine humaine recombinante (Homo sapiens, UniProt P09958)
Assay: Inhibition of furin enzyme activity (cleavage of a fluorescent substrate)
Assay type: biochemical
Settings: reference inhibitor tested at 100 nm
Method: L'expérience est réalisée en utilisant une furine humaine recombinante, qui catalyse le clivage d'un substrat spécifique fluorescent.
Le décanoyl-Arg-Val-Lys-Arg-CMK à 100 nm a été utilisé comme inhibiteur de référence de l'activité de la furine.
La furine est pré-incubée pendant 10 minutes à température ambiante en l'absence (contrôle) ou en présence du produit de référence ou de concentrations croissantes du composé testé : «Amyrines purifiées de Protium heptaphyllum»; 25 ppm; 250 ppm et 1000 ppm (v / v). Le produit «Amyrines purifiées de Protium heptaphyllum» , AMY à 1000 PPM correspond à une solution 0,5% en volume du produit HTRE commercialisé par la société Ephyla.
À la fin de l'étape de pré-incubation, un substrat de furine a été ajouté et les conditions expérimentales ont été incubées à nouveau à température ambiante à l'abri de la lumière pendant 5 minutes. Toutes les expériences ont été réalisées en triplicate.
Le composé d'essai " Amyrines purifiées de Protium heptaphyllum " pré-solubilisé à 10 000 ppm dans du DMSO. La solution a ensuite été diluée dans du tampon d'essai afin d'atteindre les concentrations décrite ci-dessus.
Le clivage du substrat fluorescent de furine a été suivi pendant 5 minutes après l'addition du substrat en lisant la fluorescence à 485 nm / 535 nm.
Les résultats sont exprimés en RFU (unités fluorescentes relatives) +/- S.D. (Écart-type).

Sequence of furine humaine recombinante (P09958 108-794): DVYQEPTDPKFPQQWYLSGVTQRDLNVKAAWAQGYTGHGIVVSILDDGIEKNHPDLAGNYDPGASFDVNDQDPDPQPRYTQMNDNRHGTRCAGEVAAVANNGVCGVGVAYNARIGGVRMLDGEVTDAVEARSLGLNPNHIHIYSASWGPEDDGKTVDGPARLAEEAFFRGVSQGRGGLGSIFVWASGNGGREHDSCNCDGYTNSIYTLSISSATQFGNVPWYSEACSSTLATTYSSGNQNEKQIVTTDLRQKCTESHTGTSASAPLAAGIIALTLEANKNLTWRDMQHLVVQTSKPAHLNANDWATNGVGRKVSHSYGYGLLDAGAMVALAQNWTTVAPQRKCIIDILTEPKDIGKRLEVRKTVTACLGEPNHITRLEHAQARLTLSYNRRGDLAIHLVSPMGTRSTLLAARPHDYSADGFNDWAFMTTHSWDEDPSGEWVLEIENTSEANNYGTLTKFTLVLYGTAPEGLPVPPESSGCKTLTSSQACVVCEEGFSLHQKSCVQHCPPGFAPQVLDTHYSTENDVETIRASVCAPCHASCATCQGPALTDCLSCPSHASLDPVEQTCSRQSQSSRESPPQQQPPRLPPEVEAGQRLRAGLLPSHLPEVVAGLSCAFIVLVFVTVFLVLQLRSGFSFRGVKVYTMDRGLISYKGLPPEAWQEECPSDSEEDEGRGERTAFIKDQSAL

## Decanoyl-Arg-Val-Lys-Arg-CMK (Decanoyl-RVKR-CH2Cl)
  inhibition de l'activité de la furine: 97,9%
